Measurements published in the supplement of paper PMC11136658.

System: peptide library, one residue held at a place counted from the Y acceptor
Test: relative phosphorylation of the sub-library (ratio to the mean residue at this position); higher = residue favoured
In short: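 Every value reflects phosphorylation relative to the mean randomized residue. The sum of the 18 randomized residues, or 16 in the Ser/Thr-free library, served to normalize intensities at each position, which were then multiplied by that number. Intensities came from phosphorimaging with ImageQuant of biotinylated Tyr-centred peptides captured on streptavidin membranes after 90 min with purified recombinant kinases and 50 μM ATP plus γ-32P-ATP.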

Sequence of ERBB4, construct: aa682-993, human (Q15303 682-993, looked up): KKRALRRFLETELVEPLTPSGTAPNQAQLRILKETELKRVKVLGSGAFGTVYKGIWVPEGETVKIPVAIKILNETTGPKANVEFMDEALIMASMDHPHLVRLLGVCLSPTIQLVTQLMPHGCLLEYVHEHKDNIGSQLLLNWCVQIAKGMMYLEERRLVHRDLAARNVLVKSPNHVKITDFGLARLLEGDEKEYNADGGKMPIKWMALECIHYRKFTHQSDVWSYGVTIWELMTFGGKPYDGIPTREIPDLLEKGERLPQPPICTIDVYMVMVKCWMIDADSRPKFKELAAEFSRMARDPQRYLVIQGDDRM
Sequence of FER, construct: aa-541-end, human (P16591 whole entry, looked up): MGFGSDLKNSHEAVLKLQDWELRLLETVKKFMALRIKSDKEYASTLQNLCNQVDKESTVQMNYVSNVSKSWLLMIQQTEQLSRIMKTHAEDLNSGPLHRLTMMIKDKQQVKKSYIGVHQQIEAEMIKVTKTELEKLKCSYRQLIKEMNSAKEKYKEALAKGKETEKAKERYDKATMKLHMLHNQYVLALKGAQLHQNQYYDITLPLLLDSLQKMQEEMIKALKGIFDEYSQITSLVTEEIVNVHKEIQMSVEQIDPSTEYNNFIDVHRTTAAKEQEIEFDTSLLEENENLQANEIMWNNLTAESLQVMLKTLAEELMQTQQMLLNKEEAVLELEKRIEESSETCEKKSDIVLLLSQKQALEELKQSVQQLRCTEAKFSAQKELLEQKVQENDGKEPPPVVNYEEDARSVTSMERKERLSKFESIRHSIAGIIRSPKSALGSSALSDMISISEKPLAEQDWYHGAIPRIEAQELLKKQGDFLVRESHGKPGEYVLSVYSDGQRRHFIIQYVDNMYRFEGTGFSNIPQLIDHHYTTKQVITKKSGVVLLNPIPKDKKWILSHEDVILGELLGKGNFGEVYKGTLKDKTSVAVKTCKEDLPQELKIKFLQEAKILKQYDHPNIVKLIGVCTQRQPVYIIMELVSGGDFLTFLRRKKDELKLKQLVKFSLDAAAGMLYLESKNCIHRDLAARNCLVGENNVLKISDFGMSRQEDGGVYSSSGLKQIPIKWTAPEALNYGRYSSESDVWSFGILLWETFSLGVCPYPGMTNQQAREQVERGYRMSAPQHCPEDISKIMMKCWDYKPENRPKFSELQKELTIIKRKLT

ERBB4, construct: aa682-993, human (from UniProt Q15303)
relative phosphorylation
Conditions | at +1 | at +2 | at +3 | at +4 | at +5 | at -1 | at -2 | at -3 | at -4 | at -5
A fixed | 1 | 0.674 | 0.487 | 0.87 | 1.07 | 0.611 | 1.41 | 0.86 | 1.34 | 1.06
D fixed | 0.859 | 1.43 | 0.443 | 0.917 | 0.946 | 2.49 | 1.76 | 1.84 | 1.36 | 1.25
E fixed | 1.87 | 2.03 | 0.446 | 1.07 | 0.98 | 2.43 | 2.11 | 2.33 | 1.62 | 1.1
F fixed | 1.07 | 1.32 | 2.24 | 1.18 | 1.25 | 0.62 | 0.599 | 0.925 | 1.12 | 1.08
G fixed | 0.413 | 0.375 | 0.427 | 1.13 | 1.14 | 0.519 | 1.04 | 0.941 | 1.09 | 0.998
H fixed | 0.893 | 0.725 | 0.757 | 0.987 | 0.865 | 0.81 | 0.877 | 0.81 | 0.757 | 1
I fixed | 1.93 | 1.14 | 2.4 | 0.846 | 0.858 | 1.96 | 0.757 | 0.647 | 0.789 | 0.823
K fixed | 0.252 | 0.401 | 0.211 | 0.647 | 0.903 | 0.297 | 0.514 | 0.691 | 0.733 | 0.913
L fixed | 1.03 | 0.97 | 1.97 | 0.758 | 1.01 | 1.21 | 0.826 | 0.859 | 0.931 | 0.936
M fixed | 1.12 | 0.975 | 1.43 | 0.922 | 0.959 | 0.876 | 0.57 | 0.842 | 0.757 | 0.892
N fixed | 0.453 | 0.909 | 0.439 | 0.635 | 0.757 | 1.24 | 1.08 | 1.37 | 0.863 | 1.16
P fixed | 0.345 | 0.691 | 0.616 | 1.28 | 1.49 | 0.503 | 1.22 | 0.964 | 1.14 | 0.907
Q fixed | 1.09 | 0.79 | 0.475 | 0.838 | 0.757 | 0.955 | 1.12 | 0.962 | 1.45 | 1.23
R fixed | 0.318 | 0.58 | 0.328 | 0.769 | 0.864 | 0.333 | 0.508 | 0.602 | 0.65 | 0.897
S fixed | 0.678 | 0.839 | 0.6 | 1.06 | 1.13 | 0.506 | 1.03 | 0.981 | 0.882 | 0.903
T fixed | 1.1 | 1.05 | 0.563 | 0.87 | 1.02 | 1.01 | 0.872 | 0.924 | 0.537 | 0.79
V fixed | 2.46 | 1.2 | 1.46 | 0.93 | 0.911 | 1.11 | 1.16 | 0.697 | 0.836 | 0.815
W fixed | 1.11 | 1.9 | 2.71 | 2.28 | 1.09 | 0.522 | 0.541 | 0.759 | 1.13 | 1.25
pThr fixed | 2.75 | 2.29 | 0.524 | 1.01 | 1.01 | 3.76 | 2.43 | 2.64 | 1.41 | 1.21
pTyr fixed | 15.4 | 5.38 | 1.12 | 1.4 | 1.13 | 2.48 | 2.59 | 2.35 | 1.62 | 1.31

FER, construct: aa-541-end, human (from UniProt P16591)
relative phosphorylation
Conditions | at +1 | at +2 | at +3 | at +4 | at +5 | at -1 | at -2 | at -3 | at -4 | at -5
A fixed | 1.7 | 0.886 | 0.866 | 0.927 | 1.07 | 0.942 | 1 | 0.818 | 1.1 | 1.05
D fixed | 1.32 | 0.911 | 0.521 | 0.838 | 0.592 | 1.12 | 1.15 | 1.29 | 1.31 | 1.22
E fixed | 2.5 | 1.28 | 0.611 | 1.42 | 0.604 | 1.19 | 1.48 | 1.74 | 1.62 | 1.13
F fixed | 0.517 | 1.27 | 1.41 | 1.11 | 1.29 | 1.45 | 0.696 | 0.988 | 1.05 | 0.972
G fixed | 1.24 | 0.645 | 0.606 | 0.94 | 0.882 | 0.427 | 1.09 | 1.1 | 1.12 | 1.17
H fixed | 0.647 | 0.83 | 1.93 | 1.12 | 0.933 | 1.52 | 1.1 | 1.07 | 0.885 | 0.982
I fixed | 0.832 | 1.03 | 1.73 | 0.911 | 1.14 | 1.85 | 0.934 | 0.804 | 0.92 | 1.01
K fixed | 0.31 | 0.646 | 0.36 | 0.941 | 0.58 | 0.357 | 0.735 | 0.617 | 0.798 | 0.831
L fixed | 0.71 | 1.15 | 1.06 | 0.874 | 1.31 | 1.43 | 0.916 | 0.84 | 0.958 | 0.977
M fixed | 0.969 | 0.973 | 1.12 | 1.29 | 1.08 | 1.06 | 0.76 | 1.01 | 0.93 | 1.06
N fixed | 0.751 | 1.18 | 0.836 | 0.923 | 0.708 | 0.983 | 1.26 | 1.35 | 0.973 | 1.12
P fixed | 0.323 | 0.867 | 0.89 | 0.873 | 2.09 | 1.05 | 1.05 | 0.971 | 1.08 | 1.02
Q fixed | 1.48 | 0.878 | 0.658 | 1.11 | 0.846 | 0.73 | 1.18 | 0.859 | 1.14 | 1.05
R fixed | 0.35 | 0.737 | 0.547 | 1.12 | 0.721 | 0.309 | 0.901 | 0.762 | 0.757 | 0.898
S fixed | 1.42 | 0.917 | 0.82 | 0.766 | 0.999 | 0.619 | 1.1 | 1 | 0.794 | 0.849
T fixed | 1.14 | 0.96 | 0.839 | 0.775 | 1.05 | 0.866 | 0.932 | 0.997 | 0.664 | 0.824
V fixed | 1.13 | 0.929 | 1.34 | 0.922 | 1.19 | 1.29 | 0.897 | 0.788 | 0.825 | 0.807
W fixed | 0.667 | 1.91 | 1.86 | 1.14 | 0.931 | 0.809 | 0.824 | 0.981 | 1.07 | 1.04
pThr fixed | 1.55 | 1.12 | 0.721 | 0.549 | 0.543 | 1.14 | 1.18 | 1.26 | 1.2 | 1.09
pTyr fixed | 2 | 1.26 | 1.01 | 0.849 | 0.471 | 3.56 | 1.58 | 1.81 | 1.63 | 1.13
